Assay results: PMC10268231 (Nature, 2021)

How the values were obtained:
Experiment in all cases: cryo-EM structure
[1] = biological target: T1, PRIM2 (human, UniProt P49643-1 1-509)
T1 sequence (looked up): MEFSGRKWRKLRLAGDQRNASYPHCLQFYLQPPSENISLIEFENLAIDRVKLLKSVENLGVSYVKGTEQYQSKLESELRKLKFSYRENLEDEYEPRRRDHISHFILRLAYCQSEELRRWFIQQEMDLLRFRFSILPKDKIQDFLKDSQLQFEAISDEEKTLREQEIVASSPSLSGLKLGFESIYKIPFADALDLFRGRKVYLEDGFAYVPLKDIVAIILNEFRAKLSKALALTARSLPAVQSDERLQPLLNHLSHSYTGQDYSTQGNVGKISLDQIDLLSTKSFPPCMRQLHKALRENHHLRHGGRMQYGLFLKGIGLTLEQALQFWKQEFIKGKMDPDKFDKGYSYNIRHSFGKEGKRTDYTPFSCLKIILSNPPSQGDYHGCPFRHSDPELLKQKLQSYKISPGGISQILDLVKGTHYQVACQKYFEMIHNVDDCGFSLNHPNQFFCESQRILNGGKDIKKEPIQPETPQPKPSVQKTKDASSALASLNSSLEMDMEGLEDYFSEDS

[2] = biological target: T2, PRIM1 (human, UniProt P49642 2-420)
T2 sequence: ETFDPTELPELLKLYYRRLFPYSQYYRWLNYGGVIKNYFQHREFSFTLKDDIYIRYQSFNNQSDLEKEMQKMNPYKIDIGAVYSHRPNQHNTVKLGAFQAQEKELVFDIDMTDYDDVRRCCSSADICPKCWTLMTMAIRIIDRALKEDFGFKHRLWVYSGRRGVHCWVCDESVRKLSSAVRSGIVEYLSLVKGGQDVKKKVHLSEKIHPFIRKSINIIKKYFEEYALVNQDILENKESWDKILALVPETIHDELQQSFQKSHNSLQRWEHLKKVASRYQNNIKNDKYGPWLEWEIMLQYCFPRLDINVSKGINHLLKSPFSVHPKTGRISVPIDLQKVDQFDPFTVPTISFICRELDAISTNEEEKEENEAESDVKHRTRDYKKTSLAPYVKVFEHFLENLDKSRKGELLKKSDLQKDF

[3] = biological target: T3, POLA2 (human, UniProt Q14181-1 1-598)
T3 sequence (looked up): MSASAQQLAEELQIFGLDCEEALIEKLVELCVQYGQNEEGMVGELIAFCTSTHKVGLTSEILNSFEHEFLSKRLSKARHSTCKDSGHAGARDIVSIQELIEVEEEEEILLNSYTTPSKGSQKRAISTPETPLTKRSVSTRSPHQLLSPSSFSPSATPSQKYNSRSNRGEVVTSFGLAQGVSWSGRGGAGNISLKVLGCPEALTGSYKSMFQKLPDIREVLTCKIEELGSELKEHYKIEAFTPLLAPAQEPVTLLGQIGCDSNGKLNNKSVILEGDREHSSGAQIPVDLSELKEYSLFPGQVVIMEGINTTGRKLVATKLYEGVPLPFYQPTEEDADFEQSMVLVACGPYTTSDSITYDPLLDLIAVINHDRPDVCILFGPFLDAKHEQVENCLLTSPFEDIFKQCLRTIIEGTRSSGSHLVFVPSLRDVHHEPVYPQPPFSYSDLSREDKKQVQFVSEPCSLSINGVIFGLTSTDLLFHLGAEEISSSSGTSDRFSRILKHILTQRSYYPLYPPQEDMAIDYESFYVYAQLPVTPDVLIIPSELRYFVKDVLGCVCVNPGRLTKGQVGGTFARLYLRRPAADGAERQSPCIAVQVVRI

[4] = biological target: T4, STN1 (human, UniProt Q9H668 2-368)
T4 sequence: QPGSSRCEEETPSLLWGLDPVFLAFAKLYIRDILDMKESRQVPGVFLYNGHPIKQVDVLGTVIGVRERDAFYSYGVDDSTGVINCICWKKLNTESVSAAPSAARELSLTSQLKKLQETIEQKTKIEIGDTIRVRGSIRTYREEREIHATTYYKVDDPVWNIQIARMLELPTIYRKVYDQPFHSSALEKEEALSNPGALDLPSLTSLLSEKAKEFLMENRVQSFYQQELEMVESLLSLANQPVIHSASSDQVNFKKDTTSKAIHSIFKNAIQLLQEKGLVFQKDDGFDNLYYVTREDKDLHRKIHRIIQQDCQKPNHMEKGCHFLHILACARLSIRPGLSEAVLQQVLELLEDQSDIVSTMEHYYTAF

Measured: binding result

B1: TEN1 (natural protein, human)
chain: LPKPGTYYLPWEVSAGQVPDGSTLRTFGRLCLYDMIQSRVTLMAQHGSDQHQVLVCTKLVEPFHAQVGSLYIVLGELQHQQDRGSVVKARVLTCVEGMNLPLLEQAIREQRLYKQERGGSQ
binds: all assays above
